According to patent US20140274782A1, “AFFINITY REAGENTS AND METHODS FOR DETECTION, PURIFICATION, AND PROTEOMIC ANALYSIS OF METHYLATED PROTEINS” (The Board of Trustees of the Leland Stanford Junior …, priority 2013, published 2014):

T1: G9a and GLP (Homo sapiens, UniProt Q96KQ7+Q9H9B1)
T1 sequence (Q96KQ7 2-1210 limits assumed): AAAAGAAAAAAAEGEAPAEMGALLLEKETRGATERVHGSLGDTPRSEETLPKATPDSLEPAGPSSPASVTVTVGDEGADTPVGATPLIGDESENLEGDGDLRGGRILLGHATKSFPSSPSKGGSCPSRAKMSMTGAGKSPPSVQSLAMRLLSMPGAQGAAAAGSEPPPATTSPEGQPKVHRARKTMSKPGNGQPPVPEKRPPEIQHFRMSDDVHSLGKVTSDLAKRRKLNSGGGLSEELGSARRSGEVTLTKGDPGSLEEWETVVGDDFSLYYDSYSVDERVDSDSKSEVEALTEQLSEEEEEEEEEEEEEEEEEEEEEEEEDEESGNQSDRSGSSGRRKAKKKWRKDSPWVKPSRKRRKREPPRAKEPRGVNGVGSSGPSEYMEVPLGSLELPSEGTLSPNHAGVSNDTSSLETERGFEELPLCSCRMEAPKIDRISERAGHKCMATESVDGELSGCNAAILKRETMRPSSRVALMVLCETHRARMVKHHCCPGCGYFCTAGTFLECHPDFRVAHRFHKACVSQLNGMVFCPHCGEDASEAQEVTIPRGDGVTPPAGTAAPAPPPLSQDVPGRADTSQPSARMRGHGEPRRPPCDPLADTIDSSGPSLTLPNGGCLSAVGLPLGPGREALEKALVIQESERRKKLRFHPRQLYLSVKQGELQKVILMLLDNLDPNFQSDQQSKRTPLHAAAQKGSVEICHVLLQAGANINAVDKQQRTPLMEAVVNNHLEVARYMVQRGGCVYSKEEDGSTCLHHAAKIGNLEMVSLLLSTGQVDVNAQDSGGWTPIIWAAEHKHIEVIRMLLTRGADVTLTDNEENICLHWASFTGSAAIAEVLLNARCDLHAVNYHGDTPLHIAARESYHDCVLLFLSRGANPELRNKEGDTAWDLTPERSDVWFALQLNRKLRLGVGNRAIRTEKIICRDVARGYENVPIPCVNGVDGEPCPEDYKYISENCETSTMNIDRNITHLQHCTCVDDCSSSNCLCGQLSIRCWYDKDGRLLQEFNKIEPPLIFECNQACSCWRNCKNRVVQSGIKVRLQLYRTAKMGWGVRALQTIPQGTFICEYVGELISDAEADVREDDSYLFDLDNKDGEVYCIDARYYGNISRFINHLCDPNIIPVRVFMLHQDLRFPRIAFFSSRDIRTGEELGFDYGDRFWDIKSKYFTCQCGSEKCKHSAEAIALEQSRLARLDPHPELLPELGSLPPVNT
T1 sequence (Q9H9B1 2-1298 limits assumed): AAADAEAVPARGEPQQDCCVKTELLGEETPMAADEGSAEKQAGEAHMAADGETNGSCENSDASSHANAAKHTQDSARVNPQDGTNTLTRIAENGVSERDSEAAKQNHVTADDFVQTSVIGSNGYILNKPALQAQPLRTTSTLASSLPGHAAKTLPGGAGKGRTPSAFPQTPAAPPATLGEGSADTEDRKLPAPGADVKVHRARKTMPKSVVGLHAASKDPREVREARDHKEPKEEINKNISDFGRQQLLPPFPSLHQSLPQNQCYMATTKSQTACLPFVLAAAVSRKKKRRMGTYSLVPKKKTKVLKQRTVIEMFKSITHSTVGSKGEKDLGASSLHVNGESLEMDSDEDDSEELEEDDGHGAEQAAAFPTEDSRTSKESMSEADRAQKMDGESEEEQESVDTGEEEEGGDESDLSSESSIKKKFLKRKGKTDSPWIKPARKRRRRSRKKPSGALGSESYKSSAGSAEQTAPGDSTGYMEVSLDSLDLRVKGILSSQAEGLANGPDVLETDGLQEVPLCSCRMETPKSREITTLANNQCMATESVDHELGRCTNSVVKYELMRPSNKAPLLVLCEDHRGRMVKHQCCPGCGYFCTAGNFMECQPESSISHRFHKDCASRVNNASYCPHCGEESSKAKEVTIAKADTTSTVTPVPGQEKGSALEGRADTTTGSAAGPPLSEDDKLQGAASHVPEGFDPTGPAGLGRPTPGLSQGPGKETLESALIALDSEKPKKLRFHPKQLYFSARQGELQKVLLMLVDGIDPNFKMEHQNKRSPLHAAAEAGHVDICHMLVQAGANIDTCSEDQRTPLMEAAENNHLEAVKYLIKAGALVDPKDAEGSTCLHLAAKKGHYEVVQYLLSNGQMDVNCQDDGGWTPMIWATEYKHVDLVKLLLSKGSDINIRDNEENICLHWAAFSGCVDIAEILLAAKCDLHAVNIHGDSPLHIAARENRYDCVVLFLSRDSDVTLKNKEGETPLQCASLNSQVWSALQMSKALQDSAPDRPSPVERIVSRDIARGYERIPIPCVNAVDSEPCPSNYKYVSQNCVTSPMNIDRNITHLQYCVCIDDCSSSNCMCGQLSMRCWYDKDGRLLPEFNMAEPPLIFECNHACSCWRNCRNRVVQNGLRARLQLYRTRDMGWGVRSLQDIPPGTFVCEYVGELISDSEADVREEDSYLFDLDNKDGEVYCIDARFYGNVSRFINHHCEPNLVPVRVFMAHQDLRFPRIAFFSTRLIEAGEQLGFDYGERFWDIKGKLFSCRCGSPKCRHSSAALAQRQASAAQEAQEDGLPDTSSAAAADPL

B1: RRM1 (protein, UniProt P23921 1-792, looked up)
Ribonucleoside-diphosphate …: MHVIKRDGRQERVMFDKITSRIQKLCYGLNMDFVDPAQITMKVIQGLYSGVTTVELDTLAAETAATLTTKHPDYAILAARIAVSNLHKETKKVFSDVMEDLYNYINPHNGKHSPMVAKSTLDIVLANKDRLNSAIIYDRDFSYNYFGFKTLERSYLLKINGKVAERPQHMLMRVSVGIHKEDIDAAIETYNLLSERWFTHASPTLFNAGTNRPQLSSCFLLSMKDDSIEGIYDTLKQCALISKSAGGIGVAVSCIRATGSYIAGTNGNSNGLVPMLRVYNNTARYVDQGGNKRPGAFAIYLEPWHLDIFEFLDLKKNTGKEEQRARDLFFALWIPDLFMKRVETNQDWSLMCPNECPGLDEVWGEEFEKLYASYEKQGRVRKVVKAQQLWYAIIESQTETGTPYMLYKDSCNRKSNQQNLGTIKCSNLCTEIVEYTSKDEVAVCNLASLALNMYVTSEHTYDFKKLAEVTKVVVRNLNKIIDINYYPVPEACLSNKRHRPIGIGVQGLADAFILMRYPFESAEAQLLNKQIFETIYYGALEASCDLAKEQGPYETYEGSPVSKGILQYDMWNVTPTDLWDWKVLKEKIAKYGIRNSLLIAPMPTASTAQILGNNESIEPYTSNIYTRRVLSGEFQIVNPHLLKDLTERGLWHEEMKNQIIACNGSIQSIPEIPDDLKQLYKTVWEISQKTVLKMAAERGAFIDQSQSLNIHIAEPNYGKLTSMHFYGWKQGLKTGMYYLRTRPAANPIQFTLNKEKLKDKEKVSKEEEEKERNTAAMVCSLENRDECLMCGS
B2: SEPT7 (protein, UniProt Q16181 2-437, looked up)
Septin-7: SVSARSAAAEERSVNSSTMVAQQKNLEGYVGFANLPNQVYRKSVKRGFEFTLMVVGESGLGKSTLINSLFLTDLYSPEYPGPSHRIKKTVQVEQSKVLIKEGGVQLLLTIVDTPGFGDAVDNSNCWQPVIDYIDSKFEDYLNAESRVNRRQMPDNRVQCCLYFIAPSGHGLKPLDIEFMKRLHEKVNIIPLIAKADTLTPEECQQFKKQIMKEIQEHKIKIYEFPETDDEEENKLVKKIKDRLPLAVVGSNTIIEVNGKRVRGRQYPWGVAEVENGEHCDFTILRNMLIRTHMQDLKDVTNNVHYENYRSRKLAAVTYNGVDNNKNKGQLTKSPLAQMEEERREHVAKMKKMEMEMEQVFEMKVKEKVQKLKDSEAELQRRHEQMKKNLEAQHKELEEKRRQFEDEKANWEAQQRILEQQNSSRTLEKNKKKGKIF
B3: HNRNPL (protein, UniProt P14866 1-589, looked up)
Heterogeneous nuclear …: MSRRLLPRAEKRRRRLEQRQQPDEQRRRSGAMVKMAAAGGGGGGGRYYGGGSEGGRAPKRLKTDNAGDQHGGGGGGGGGAGAAGGGGGGENYDDPHKTPASPVVHIRGLIDGVVEADLVEALQEFGPISYVVVMPKKRQALVEFEDVLGACNAVNYAADNQIYIAGHPAFVNYSTSQKISRPGDSDDSRSVNSVLLFTILNPIYSITTDVLYTICNPCGPVQRIVIFRKNGVQAMVEFDSVQSAQRAKASLNGADIYSGCCTLKIEYAKPTRLNVFKNDQDTWDYTNPNLSGQGDPGSNPNKRQRQPPLLGDHPAEYGGPHGGYHSHYHDEGYGPPPPHYEGRRMGPPVGGHRRGPSRYGPQYGHPPPPPPPPEYGPHADSPVLMVYGLDQSKMNCDRVFNVFCLYGNVEKVKFMKSKPGAAMVEMADGYAVDRAITHLNNNFMFGQKLNVCVSKQPAIMPGQSYGLEDGSCSYKDFSESRNNRFSTPEQAAKNRIQHPSNVLHFFNAPLEVTEENFFEICDELGVKRPSSVKVFSGKSERSSSGLLEWESKSDALETLGFLNHYQMKNPNGPYPYTLKLCFSTAQHAS
B4: WDR70 (protein, UniProt Q9NW82 1-654, looked up)
WD repeat-containing protein …: MERSGPSEVTGSDASGPDPQLAVTMGFTGFGKKARTFDLEAMFEQTRRTAVERSRKTLEAREKEEEMNREKELRRQNEDIEPTSSRSNVVRDCSKSSSRDTSSSESEQSSDSSDDELIGPPLPPKMVGKPVNFMEEDILGPLPPPLNEEEEEAEEEEEEEEEEENPVHKIPDSHEITLKHGTKTVSALGLDPSGARLVTGGYDYDVKFWDFAGMDASFKAFRSLQPCECHQIKSLQYSNTGDMILVVSGSSQAKVIDRDGFEVMECIKGDQYIVDMANTKGHTAMLHTGSWHPKIKGEFMTCSNDATVRTWEVENPKKQKSVFKPRTMQGKKVIPTTCTYSRDGNLIAAACQNGSIQIWDRNLTVHPKFHYKQAHDSGTDTSCVTFSYDGNVLASRGGDDSLKLWDIRQFNKPLFSASGLPTMFPMTDCCFSPDDKLIVTGTSIQRGCGSGKLVFFERRTFQRVYEIDITDASVVRCLWHPKLNQIMVGTGNGLAKVYYDPNKSQRGAKLCVVKTQRKAKQAETLTQDYIITPHALPMFREPRQRSTRKQLEKDRLDPLKSHKPEPPVAGPGRGGRVGTHGGTLSSYIVKNIALDKTDDSNPREAILRHAKAAEDSPYWVSPAYSKTQPKTMFAQVESDDEEAKNEPEWKKRKI

How the values were obtained:
3×MBT domain of L3MBTL1 = assay: Triple SILAC pull-down, 3xMBT/3xMBTD355N ratio (cytoplasmic, nuclear and chromatin fractions of 293T cells); type: binding, human; details: SILAC ratio, pull-down 3xMBT vs 3xMBTD355N; for 3xMBT/D355N UNC Heavy: experiment with UNC0638 in heavy SILAC media; for 3xMBT/D355N UNC Light: experiment with UNC0638 in light SILAC media;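 for all read-outs here: proteins quantified with MaxQuant, requiring at least two unique peptides and quantification in both label directions, normalized to the mean of proteins from a digested loading control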
G9a and GLP = target: T1, G9a and GLP; assay: Triple SILAC pull-down after UNC0638 treatment of 293T cells, DMSO/UNC0638 ratio of protein captured by 3×MBT; type: cell-based; set-up: endogenous in cells; host or cells: HEK 293T; details: for Relative to UNC0638 UNC Heavy / Relative to UNC0638 UNC Light: SILAC ratio DMSO/UNC0638 of protein pulled down with 3xMBT; for Relative to UNC0638 UNC Heavy: UNC0638 in heavy SILAC media; for Relative to UNC0638 UNC Light: UNC0638 in light SILAC media; for Relative to UNC0638 Average: average of UNC Light and UNC Heavy experiments;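 for all read-outs here: mass spectrometry (Q-Exactive) SILAC quantitation, DMSO/UNC0638 ratio computed after subtracting 3×MBTD355N mutant pull-down background, only proteins with at least twofold 3×MBT over mutant signal considered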

| Molecule | 3xMBT/D355N UNC Heavy (3×MBT domain of L3MBTL1) | 3xMBT/D355N UNC Light (3×MBT domain of L3MBTL1) | Relative to UNC0638 UNC Heavy (G9a and GLP) | Relative to UNC0638 UNC Light (G9a and GLP) | Relative to UNC0638 Average (G9a and GLP) | Candidate G9a/GLP target (G9a and GLP; reduced association with 3xMBT after UNC0638 treatment) |
| --- | --- | --- | --- | --- | --- | --- |
| B1 | 1.23 log base 2 | 0.94 log base 2 | 0.96 log base 2 | −0.22 log base 2 | 0.37 log base 2 |  |
| B2 | 2.75 log base 2 | 2.54 log base 2 | 0.50 log base 2 | 0.26 log base 2 | 0.38 log base 2 |  |
| B3 | 1.15 log base 2 | 1.40 log base 2 | 0.36 log base 2 | 0.41 log base 2 | 0.38 log base 2 | ✓ |
| B4 | 2.21 log base 2 | 2.93 log base 2 | 0.94 log base 2 | −0.18 log base 2 | 0.38 log base 2 |  |
